# From patent US8840891 (RSR, dated 2014)
# Key:
# Experiment in all cases: cell-based or functional assay
# [1] = biological target: TSHR with Gln235 mutated to Alanine (human) (UniProt P16473)
# [2] = biological target: wild type human TSHR (human) (UniProt P16473)
# [3] = biological target: TSHR with Arg255 mutated to Aspartic acid (human) (UniProt P16473)
# 5C9 IgG (antibody), sequence (VH): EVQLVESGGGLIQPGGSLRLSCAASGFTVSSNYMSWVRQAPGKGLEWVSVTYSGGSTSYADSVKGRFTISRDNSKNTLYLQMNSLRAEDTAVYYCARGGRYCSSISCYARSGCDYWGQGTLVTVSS
# 5C9 IgG (antibody), sequence (VL): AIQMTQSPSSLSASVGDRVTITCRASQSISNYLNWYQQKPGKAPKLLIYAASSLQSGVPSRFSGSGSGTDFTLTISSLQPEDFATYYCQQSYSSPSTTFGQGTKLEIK
substance,measurement,setting,value
5C9 IgG (antibody),Mutated/wild type (%); 5C9 0.01 µg/mL + TSH,[1],244%
same,Mutated/wild type (%); 5C9 0.1 µg/mL + TSH,[1],96%
same,Mutated/wild type (%); 5C9 1.0 µg/mL + TSH,[1],95%
same,Mutated/wild type (%); 5C9 10 µg/mL + TSH,[1],192%
same,Mutated/wild type (%); 5C9 100 µg/mL + TSH,[1],97%
same,Mutated/wild type (%); 5C9 100 µg/mL only,[1],215%
same,cyclic AMP; 5C9 0.01 µg/mL + TSH (fmol/cell well),[1],17500
same,cyclic AMP; 5C9 0.1 µg/mL + TSH (fmol/cell well),[1],7440
same,cyclic AMP; 5C9 1.0 µg/mL + TSH (fmol/cell well),[1],2420
same,cyclic AMP; 5C9 10 µg/mL + TSH (fmol/cell well),[1],1020
same,cyclic AMP; 5C9 100 µg/mL + TSH (fmol/cell well),[1],727
same,cyclic AMP; 5C9 100 µg/mL only (fmol/cell well),[1],256
same,cyclic AMP; 5C9 0.01 µg/mL + TSH (fmol/cell well),[2],17500
same,cyclic AMP; 5C9 0.1 µg/mL + TSH (fmol/cell well),[2],6600
same,cyclic AMP; 5C9 1.0 µg/mL + TSH (fmol/cell well),[2],3380
same,cyclic AMP; 5C9 10 µg/mL + TSH (fmol/cell well),[2],1240
same,cyclic AMP; 5C9 100 µg/mL + TSH (fmol/cell well),[2],1510
same,cyclic AMP; 5C9 100 µg/mL only (fmol/cell well),[2],278
same,Mutated/wild type (%); 5C9 0.01 µg/mL + TSH,[3],89%
same,Mutated/wild type (%); 5C9 0.1 µg/mL + TSH,[3],85%
same,Mutated/wild type (%); 5C9 1.0 µg/mL + TSH,[3],57%
same,Mutated/wild type (%); 5C9 10 µg/mL + TSH,[3],59%
same,Mutated/wild type (%); 5C9 100 µg/mL + TSH,[3],94%
same,Mutated/wild type (%); 5C9 100 µg/mL only,[3],201%
same,cyclic AMP; 5C9 0.01 µg/mL + TSH (fmol/cell well),[3],15700
same,cyclic AMP; 5C9 0.1 µg/mL + TSH (fmol/cell well),[3],5580
same,cyclic AMP; 5C9 1.0 µg/mL + TSH (fmol/cell well),[3],1930
same,cyclic AMP; 5C9 10 µg/mL + TSH (fmol/cell well),[3],735
same,cyclic AMP; 5C9 100 µg/mL + TSH (fmol/cell well),[3],1410
same,cyclic AMP; 5C9 100 µg/mL only (fmol/cell well),[3],559
